From US20210355219A1 (HARPOON THERAPEUTICS, published 2021)
Residue numbers refer to the chain shown, from its start.

Tests used:
C00703 huCD40::Fc [1] = molecular target: T1, C00703 huCD40::Fc (human); assay: BLI (Octet); huCD40::Fc immobilized, masked protein at 100 nM in conditioned media; nm shift relative to unmasked control anti-Alb-anti-CD40
T1 construct: also called human CD40 protein; immobilized huCD40

[2] = molecular target: CD40 on purified human B cells (human, UniProt P25942 21-277); assay: cell-based or functional assay
Sequence of CD40 on purified human B cells (P25942 21-277): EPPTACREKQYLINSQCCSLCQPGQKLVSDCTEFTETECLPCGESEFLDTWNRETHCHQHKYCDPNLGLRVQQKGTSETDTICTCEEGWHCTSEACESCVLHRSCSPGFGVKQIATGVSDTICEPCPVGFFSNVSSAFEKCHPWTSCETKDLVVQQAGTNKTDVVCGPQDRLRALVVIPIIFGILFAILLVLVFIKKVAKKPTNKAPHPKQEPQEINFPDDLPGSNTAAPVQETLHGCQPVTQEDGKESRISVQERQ
C00703 huCD40::Fc [3] = molecular target: T1, C00703 huCD40::Fc; assay: ELISA, immobilized huCD40, purified protein
C00703 huCD40::Fc [4] = molecular target: T1, C00703 huCD40::Fc; assay: ELISA, immobilized huCD40; EC50 shift against unmasked anti-CD40
C00703 huCD40::Fc [5] = molecular target: T1, C00703 huCD40::Fc; assay: ELISA, immobilized huCD40; the reference of the shift

T1 sequence (chain, as listed by the source limits assumed): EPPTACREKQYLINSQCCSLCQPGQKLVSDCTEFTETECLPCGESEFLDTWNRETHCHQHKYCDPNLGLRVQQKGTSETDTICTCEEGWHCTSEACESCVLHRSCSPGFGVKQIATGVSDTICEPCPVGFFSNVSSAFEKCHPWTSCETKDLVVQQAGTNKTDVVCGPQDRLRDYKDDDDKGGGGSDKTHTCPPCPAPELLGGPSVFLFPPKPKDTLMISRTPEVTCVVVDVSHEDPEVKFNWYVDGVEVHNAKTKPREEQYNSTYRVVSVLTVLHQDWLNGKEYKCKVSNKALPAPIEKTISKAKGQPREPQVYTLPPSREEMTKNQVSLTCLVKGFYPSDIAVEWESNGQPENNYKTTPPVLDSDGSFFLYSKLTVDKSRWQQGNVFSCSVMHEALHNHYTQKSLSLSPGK

B1: anti-Alb-CD-1-A09 masked anti-CD40 protein with anti-CD40 heavy chain SEQ ID No. 73 (bispecific antibody, human IgG1, kappa)
heavy: not shown
light: EVQLVESGGGLVQPGNSLTLSCAASGFTFSKFGMSWVRQAPGSQKPGLEWVSSISGSGRDTLYADSVKGRFTISRDNAKTTLYLQMNSLRPEDTAVYYCTIGGSLSVSSQGTLVTVSSGGGGSGGGSGGGGSGGGSDIQMTQSPSSVSASVGDRVTITCRASQGIYSWLAWYQQKPGKAPNLLIYTASTLQSGVPSRFSGSGSGTDFTLTISSLQPEDFATYYCQQANIFPLTFGGGTKVEIKRTVAAPSVFIFPPSDEQLKSGTASVVCLLNNFYPREAKVQWKVDNALQSGNSQESVTEQDSKDSTYSLSSTLTLSKADYEKHKVYACEVTHQGLSSPVTKSFNRGEC
notes: Built as m2; Signal domain left out; Tested in conditioned media; also called aAlb-CD-1-A09
Binding response (% of control) (C00703 huCD40::Fc [1]): 67 % of control

B2: anti-Alb-CD-2-D07 masked anti-CD40 protein with anti-CD40 heavy chain SEQ ID No. 73 (bispecific antibody, human IgG1, kappa)
heavy: not shown
light: EVQLVESGGGLVQPGNSLTLSCAASGFTFSKFGMSWVRQARAATAGSGLEWVSSISGSGRDTLYADSVKGRFTISRDNAKTTLYLQMNSLRPEDTAVYYCTIGGSLSVSSQGTLVTVSSGGGGSGGGSGGGGSGGGSDIQMTQSPSSVSASVGDRVTITCRASQGIYSWLAWYQQKPGKAPNLLIYTASTLQSGVPSRFSGSGSGTDFTLTISSLQPEDFATYYCQQANIFPLTFGGGTKVEIKRTVAAPSVFIFPPSDEQLKSGTASVVCLLNNFYPREAKVQWKVDNALQSGNSQESVTEQDSKDSTYSLSSTLTLSKADYEKHKVYACEVTHQGLSSPVTKSFNRGEC
notes: Built as m2; Signal domain left out; Tested in conditioned media; also called aAlb-CD-2-D07
Binding response (% of control) (C00703 huCD40::Fc [1]): 48 % of control

B3: anti-Alb-CD-2-B07 masked anti-CD40 protein with anti-CD40 heavy chain SEQ ID No. 73 (bispecific antibody, human IgG1, kappa)
heavy: not shown
light: B2 light with R41V, A42R, A43P, T44R, A45G, G46T, S47G
notes: Built as m2; Signal domain left out; Tested in conditioned media; also called aAlb-CD-2-B07
Binding response (% of control) (C00703 huCD40::Fc [1]): 64 % of control

B4: anti-Alb-CD-2-D08 masked anti-CD40 protein with anti-CD40 heavy chain SEQ ID No. 73 (bispecific antibody, human IgG1, kappa)
heavy: not shown
light: B2 light with R41T, A42S, A43W, T44R, A45H, G46E, S47R
notes: Built as m2; Signal domain left out; Tested in conditioned media; also called aAlb-CD-2-D08
Binding response (% of control) (C00703 huCD40::Fc [1]): 68 % of control

B5: anti-Alb mask070 anti-CD40 C2882, C2764 (aCD40 Heavy Chain GDSE) (bispecific antibody, human IgG1, kappa)
heavy: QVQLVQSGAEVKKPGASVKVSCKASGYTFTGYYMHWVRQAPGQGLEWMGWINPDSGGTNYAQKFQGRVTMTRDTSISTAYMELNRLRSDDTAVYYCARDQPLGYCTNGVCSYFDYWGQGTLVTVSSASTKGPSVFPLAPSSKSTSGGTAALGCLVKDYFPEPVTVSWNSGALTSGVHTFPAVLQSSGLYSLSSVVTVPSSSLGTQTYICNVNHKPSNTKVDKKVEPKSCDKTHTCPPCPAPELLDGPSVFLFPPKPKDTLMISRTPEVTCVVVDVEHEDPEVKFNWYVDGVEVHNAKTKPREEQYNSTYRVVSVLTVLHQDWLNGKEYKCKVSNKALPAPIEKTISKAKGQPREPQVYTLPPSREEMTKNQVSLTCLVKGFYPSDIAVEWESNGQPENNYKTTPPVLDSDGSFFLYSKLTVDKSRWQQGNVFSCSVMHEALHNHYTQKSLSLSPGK
light: B2 light with T44S, S47Q
notes: Non-cleavable linker; Purified by Protein A. Same light chain as m2 but with the GDSE heavy chain C2764; also called C2882 aAlb-CD40-mask070
Activity shift, B cell activation [2]: 2000 fold | EC50 (C00703 huCD40::Fc [3]): 25000 pM | Binding shift (C00703 huCD40::Fc [4]): 52 fold

B6: anti-Alb-CD-2-A10 masked anti-CD40 protein with anti-CD40 heavy chain SEQ ID No. 73 (bispecific antibody, human IgG1, kappa)
heavy: not shown
light: EVQLVESGGGLVQPGNSLTLSCAASGFTFSKFGMSWVRQAVGTRETSGGLEWVSSISGSGRDTLYADSVKGRFTISRDNAKTTLYLQMNSLRPEDTAVYYCTIGGSLSVSSQGTLVTVSSGGGGSGGGSGGGGSGGGSDIQMTQSPSSVSASVGDRVTITCRASQGIYSWLAWYQQKPGKAPNLLIYTASTLQSGVPSRFSGSGSGTDFTLTISSLQPEDFATYYCQQANIFPLTFGGGTKVEIKRTVAAPSVFIFPPSDEQLKSGTASVVCLLNNFYPREAKVQWKVDNALQSGNSQESVTEQDSKDSTYSLSSTLTLSKADYEKHKVYACEVTHQGLSSPVTKSFNRGEC
notes: Built as m2; Signal domain left out; Tested in conditioned media; also called aAlb-CD-2-A10
Binding response (% of control) (C00703 huCD40::Fc [1]): 65 % of control

B7: anti-Alb-CD-2-C05 masked anti-CD40 protein with anti-CD40 heavy chain SEQ ID No. 73 (bispecific antibody, human IgG1, kappa)
heavy: not shown
light: B6 light with V41L, T43R, R44H, T46S, G48V
notes: Built as m2; Signal domain left out; Tested in conditioned media; also called aAlb-CD-2-C05
Binding response (% of control) (C00703 huCD40::Fc [1]): 31 % of control

B8: anti-Alb-CD-2-D06 masked anti-CD40 protein with anti-CD40 heavy chain SEQ ID No. 73 (bispecific antibody, human IgG1, kappa)
heavy: not shown
light: B6 light with V41M, G42N, T43R, R44H, T46N, S47D, G48R
notes: Built as m2; Signal domain left out; Tested in conditioned media; also called aAlb-CD-2-D06
Binding response (% of control) (C00703 huCD40::Fc [1]): 42 % of control

B9: anti-Alb-CD-2-C11 masked anti-CD40 protein with anti-CD40 heavy chain SEQ ID No. 73 (bispecific antibody, human IgG1, kappa)
heavy: not shown
light: B6 light with V41L, T43R, G48V
notes: Built as m2; Signal domain left out; Tested in conditioned media; also called aAlb-CD-2-C11
Binding response (% of control) (C00703 huCD40::Fc [1]): 63 % of control

B10: anti-Alb-CD-2-F10 masked anti-CD40 protein with anti-CD40 heavy chain SEQ ID No. 73 (bispecific antibody, human IgG1, kappa)
heavy: not shown
light: B6 light with T43P
notes: Built as m2; Signal domain left out; Tested in conditioned media; also called aAlb-CD-2-F10
Binding response (% of control) (C00703 huCD40::Fc [1]): 63 % of control

B11: anti-Alb-CD-1-F06 masked anti-CD40 protein with anti-CD40 heavy chain SEQ ID No. 73 (bispecific antibody, human IgG1, kappa)
heavy: not shown
light: B6 light with G42R, E45R
notes: Built as m2; Signal domain left out; Tested in conditioned media; also called aAlb-CD-1-F06
Binding response (% of control) (C00703 huCD40::Fc [1]): 57 % of control

B12: anti-Alb-CD-2-F09 masked anti-CD40 protein with anti-CD40 heavy chain SEQ ID No. 73 (bispecific antibody, human IgG1, kappa)
heavy: not shown
light: B6 light with V41P, G42Y, T43S, R44Q, E45P, S47K, G48A
notes: Built as m2; Signal domain left out; Tested in conditioned media; also called aAlb-CD-2-F09
Binding response (% of control) (C00703 huCD40::Fc [1]): 75 % of control

B13: anti-Alb-CD-2-D09 masked anti-CD40 protein with anti-CD40 heavy chain SEQ ID No. 73 (bispecific antibody, human IgG1, kappa)
heavy: not shown
light: B6 light with G42R, E45G
notes: Built as m2; Signal domain left out; Tested in conditioned media; also called aAlb-CD-2-D09
Binding response (% of control) (C00703 huCD40::Fc [1]): 66 % of control

B14: Unmasked anti-CD40 C00697, C2764 (aCD40 Heavy Chain GDSE) (antibody, human IgG1, kappa, V domains shown)
VH: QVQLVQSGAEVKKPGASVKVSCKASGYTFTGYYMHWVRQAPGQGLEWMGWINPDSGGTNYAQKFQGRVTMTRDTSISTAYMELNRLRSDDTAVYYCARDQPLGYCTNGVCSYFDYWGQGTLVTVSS
VL: DIQMTQSPSSVSASVGDRVTITCRASQGIYSWLAWYQQKPGKAPNLLIYTASTLQSGVPSRFSGSGSGTDFTLTISSLQPEDFATYYCQQANIFPLTFGGGTKVEIKR
notes: Anti-CD40 light chain without an anti-Alb domain; also called Active mimic C00697, C2764; control active mimic
Activity shift, B cell activation [2]: 1 fold | EC50 (M), B cell activation (percentage of CD86 positive B cells, flow cytometry, 48 hours) [2]: 2.1e-11 M | EC50 (C00703 huCD40::Fc [3]): 480 pM | Binding shift (C00703 huCD40::Fc [5]): 1 fold

B15: anti-Alb mask070 L040 anti-CD40, C2905, C2764, L040 (-) Protease (bispecific antibody, human IgG1, kappa)
heavy: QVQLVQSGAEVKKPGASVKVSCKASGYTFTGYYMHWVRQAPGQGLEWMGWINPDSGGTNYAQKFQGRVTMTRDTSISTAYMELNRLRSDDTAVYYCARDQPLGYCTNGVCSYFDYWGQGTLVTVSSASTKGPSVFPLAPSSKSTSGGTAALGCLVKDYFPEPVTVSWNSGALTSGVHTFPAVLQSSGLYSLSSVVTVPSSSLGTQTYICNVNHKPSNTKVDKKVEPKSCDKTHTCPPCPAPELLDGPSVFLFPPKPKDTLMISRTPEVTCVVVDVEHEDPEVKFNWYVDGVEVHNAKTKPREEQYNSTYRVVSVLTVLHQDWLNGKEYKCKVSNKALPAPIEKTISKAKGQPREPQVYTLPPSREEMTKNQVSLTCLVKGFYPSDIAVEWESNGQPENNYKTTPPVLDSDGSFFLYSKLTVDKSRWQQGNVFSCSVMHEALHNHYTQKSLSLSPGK
light: EVQLVESGGGLVQPGNSLTLSCAASGFTFSKFGMSWVRQARAASAGQGLEWVSSISGSGRDTLYADSVKGRFTISRDNAKTTLYLQMNSLRPEDTAVYYCTIGGSLSVSSQGTLVTVSSGGGGPQASTGRSGGGGSDIQMTQSPSSVSASVGDRVTITCRASQGIYSWLAWYQQKPGKAPNLLIYTASTLQSGVPSRFSGSGSGTDFTLTISSLQPEDFATYYCQQANIFPLTFGGGTKVEIKRTVAAPSVFIFPPSDEQLKSGTASVVCLLNNFYPREAKVQWKVDNALQSGNSQESVTEQDSKDSTYSLSSTLTLSKADYEKHKVYACEVTHQGLSSPVTKSFNRGEC
Activity shift, B cell activation [2]: 2000 fold

B16: anti-Alb mask070 L040 anti-CD40, C2905, C2764, L040 (+) Protease (antibody)
heavy: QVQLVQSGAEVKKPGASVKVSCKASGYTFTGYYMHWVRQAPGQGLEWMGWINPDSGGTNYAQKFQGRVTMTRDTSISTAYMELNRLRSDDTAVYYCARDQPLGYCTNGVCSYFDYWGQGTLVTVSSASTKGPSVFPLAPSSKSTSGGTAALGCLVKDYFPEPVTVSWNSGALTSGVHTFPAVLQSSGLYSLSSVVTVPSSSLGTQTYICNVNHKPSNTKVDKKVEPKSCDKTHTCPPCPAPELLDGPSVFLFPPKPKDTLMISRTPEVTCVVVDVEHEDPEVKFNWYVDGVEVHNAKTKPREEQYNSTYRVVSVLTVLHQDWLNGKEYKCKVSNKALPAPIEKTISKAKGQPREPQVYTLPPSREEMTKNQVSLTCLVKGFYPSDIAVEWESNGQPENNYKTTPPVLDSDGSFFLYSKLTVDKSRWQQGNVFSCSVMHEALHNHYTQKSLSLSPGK
light: B15 light
Activity shift, B cell activation [2]: 1 fold | EC50 (M), B cell activation (percentage of CD86 positive B cells, flow cytometry, 48 hours) [2]: 1.6e-11 M
